Where two headings read alike, the source gives them in different places.
Columns and labels:
[1] = test system: 15 P. aeruginosa isolates; assay: MIC of GN370 in dog, human, rabbit and rat serum and CAAT; meropenem in CAMHB (Table 33); assay type: cell-based, Pseudomonas aeruginosa; settings: for MIC90: 15 isolates; for MIC GN370: diluted CAAT media
[2] = test system: P. aeruginosa isolates; assay: MIC against a range of isolates in CAA + […] human serum (Table 11); assay type: cell-based, Pseudomonas aeruginosa
[3] = test system: P. aeruginosa strains; assay: Checkerboard synergy with meropenem in 25% CAA and […] human serum (Table 16); assay type: cell-based, Pseudomonas aeruginosa; settings: for FICI value (Run #1), with meropenem / FICI value (Run #2), with meropenem: 25% CAA and […] human serum
[4] = test system: Pseudomonas aeruginosa biofilm; assay: MBEC in CAA supplemented with […] human serum (Table 14); assay type: cell-based
Protocol: Biofilms are then washed and treated with e.g., a 2-fold dilution series of the lysin in TSBg at e.g., 37° C. for 24 hours. After treatment, wells are washed, air-dried at e.g., 37° C. and stained with e.g., 0.05% crystal violet for 10 minutes.
Materials and methods: MICs were determined by broth microdilution in media supplemented with human serum and pulmonary surfactant ([…]®; Myoderm Clinical Supplies). Minimal biofilm eradicating concentrations (MBECs) were determined using standard methods. […] Fluorescence microscopy was performed after LIVE/DEAD staining (ThermoFisher) and TEM was performed.

[5] = test system: P. aeruginosa isolate CFS 1558 (PA20); assay type: in vivo; settings: for Log10 CFU/g of vegetation: rabbit lung
Protocol: A rabbit pulmonary model was used to assess the efficacy of the GN370 lysin alone and in combination with an antibiotic (meropenem). Initially, rabbits were infected intratracheally with P. aeruginosa isolate CFS 1558 (PA20) (3×10^9 CFU). Treatment commenced 6 hours post-infection.

[6] = test system: carbapenem-resistant P. aeruginosa strains; assay: Resensitization of carbapenem-resistant strains, combinations with imipenem or meropenem (Tables 18-22); assay type: cell-based, Pseudomonas aeruginosa; settings: for FICI: isolate WC-452

B1: GN370: lysin-AMP construct: MIDR, FIRL and NPTH moieties N-terminal to GN202 lysin (SEQ ID NO: 44) (protein)
chain: MIDRFIRLNPTHGPRRPRRPGRRAPVRTSQRGIDLIKSFEGLRLSAYQDSVGVWTIGYGTTRGVTRYMTITVEQAERMLSNDIQRFEPELDRLAKVPLNQNQWDALMSFVYNLGAANLASSTLLDLLNKGDYQGAADQFPHWVNAGGKRLDGLVKRRAAERALFLEPLS
MIC90 ([1]; dog serum): 4 µg/mL | MIC90 ([1]; human serum): 2 µg/mL | MIC90 ([1]; rabbit serum): 2 µg/mL | MIC90 ([1]; rat serum): 32 µg/mL | MIC GN370 ([1]; strain AR0231): 2 µg/mL | Serum MIC Dog ([1]; strain AR0231, dog serum): 2 µg/mL | Serum MIC Human ([1]; strain AR0231, human serum): 1 µg/mL | Serum MIC Rabbit ([1]; strain AR0231, rabbit serum): 1 µg/mL | Serum MIC Rat ([1]; strain AR0231, rat serum): 16 µg/mL | MIC GN370 ([1]; strain AR0241): 2 µg/mL | Serum MIC Dog ([1]; strain AR0241, dog serum): 1 µg/mL | Serum MIC Human ([1]; strain AR0241, human serum): 1 µg/mL | Serum MIC Rabbit ([1]; strain AR0241, rabbit serum): 1 µg/mL | Serum MIC Rat ([1]; strain AR0241, rat serum): 32 µg/mL | MIC GN370 ([1]; strain AR0246): 1 µg/mL | Serum MIC Dog ([1]; strain AR0246, dog serum): 4 µg/mL | Serum MIC Human ([1]; strain AR0246, human serum): 2 µg/mL | Serum MIC Rabbit ([1]; strain AR0246, rabbit serum): 2 µg/mL | Serum MIC Rat ([1]; strain AR0246, rat serum): 32 µg/mL | MIC GN370 ([1]; strain ATCC 25668): 0.5 µg/mL | Serum MIC Dog ([1]; strain ATCC 25668, dog serum): 2 µg/mL | Serum MIC Human ([1]; strain ATCC 25668, human serum): 1 µg/mL | Serum MIC Rabbit ([1]; strain ATCC 25668, rabbit serum): 2 µg/mL | Serum MIC Rat ([1]; strain ATCC 25668, rat serum): 16 µg/mL | MIC GN370 ([1]; strain ATCC 27853): 1 µg/mL | Serum MIC Dog ([1]; strain ATCC 27853, dog serum): 2 µg/mL | Serum MIC Human ([1]; strain ATCC 27853, human serum): 1 µg/mL | Serum MIC Rabbit ([1]; strain ATCC 27853, rabbit serum): 2 µg/mL | Serum MIC Rat ([1]; strain ATCC 27853, rat serum): 32 µg/mL | MIC GN370 ([1]; strain PA1): 0.5 µg/mL | Serum MIC Dog ([1]; strain PA1, dog serum): 1 µg/mL | Serum MIC Human ([1]; strain PA1, human serum): 2 µg/mL | Serum MIC Rabbit ([1]; strain PA1, rabbit serum): 2 µg/mL | Serum MIC Rat ([1]; strain PA1, rat serum): 16 µg/mL | MIC GN370 ([1]; strain PA2): 0.5 µg/mL | Serum MIC Dog ([1]; strain PA2, dog serum): 1 µg/mL | Serum MIC Human ([1]; strain PA2, human serum): 1 µg/mL | Serum MIC Rabbit ([1]; strain PA2, rabbit serum): 2 µg/mL | Serum MIC Rat ([1]; strain PA2, rat serum): 16 µg/mL | MIC GN370 ([1]; strain PA3): 1 µg/mL | Serum MIC Dog ([1]; strain PA3, dog serum): 2 µg/mL | Serum MIC Human ([1]; strain PA3, human serum): 2 µg/mL | Serum MIC Rabbit ([1]; strain PA3, rabbit serum): 2 µg/mL | Serum MIC Rat ([1]; strain PA3, rat serum): 16 µg/mL | MIC GN370 ([1]; strain PA19): 1 µg/mL | Serum MIC Dog ([1]; strain PA19, dog serum): 1 µg/mL | Serum MIC Human ([1]; strain PA19, human serum): 0.5 µg/mL | Serum MIC Rabbit ([1]; strain PA19, rabbit serum): 0.5 µg/mL | Serum MIC Rat ([1]; strain PA19, rat serum): 32 µg/mL | MIC GN370 ([1]; strain PA20): 1 to 2 µg/mL | Serum MIC Dog ([1]; strain PA20, dog serum): 2 µg/mL | Serum MIC Human ([1]; strain PA20, human serum): 1 µg/mL | Serum MIC Rabbit ([1]; strain PA20, rabbit serum): 2 µg/mL | Serum MIC Rat ([1]; strain PA20, rat serum): 32 µg/mL | MIC GN370 ([1]; strain PA22): 2 µg/mL | Serum MIC Dog ([1]; strain PA22, dog serum): 2 µg/mL | Serum MIC Human ([1]; strain PA22, human serum): 2 µg/mL | Serum MIC Rabbit ([1]; strain PA22, rabbit serum): 2 µg/mL | Serum MIC Rat ([1]; strain PA22, rat serum): 32 µg/mL | MIC GN370 ([1]; strain PA23): 2 µg/mL | Serum MIC Dog ([1]; strain PA23, dog serum): 2 µg/mL | Serum MIC Human ([1]; strain PA23, human serum): 1 µg/mL | Serum MIC Rabbit ([1]; strain PA23, rabbit serum): 2 µg/mL | Serum MIC Rat ([1]; strain PA23, rat serum): 32 µg/mL | MIC GN370 ([1]; strain PA24): 1 µg/mL | Serum MIC Dog ([1]; strain PA24, dog serum): 4 µg/mL | Serum MIC Human ([1]; strain PA24, human serum): 2 µg/mL | Serum MIC Rabbit ([1]; strain PA24, rabbit serum): 2 µg/mL | Serum MIC Rat ([1]; strain PA24, rat serum): 16 µg/mL | MIC GN370 ([1]; strain PA27): 0.5 µg/mL | Serum MIC Dog ([1]; strain PA27, dog serum): 2 µg/mL | Serum MIC Human ([1]; strain PA27, human serum): 2 µg/mL | Serum MIC Rabbit ([1]; strain PA27, rabbit serum): 2 µg/mL | Serum MIC Rat ([1]; strain PA27, rat serum): 16 µg/mL | MIC GN370 ([1]; strain PA453): 0.5 µg/mL | Serum MIC Dog ([1]; strain PA453, dog serum): 0.5 µg/mL | Serum MIC Human ([1]; strain PA453, human serum): 0.5 µg/mL | Serum MIC Rabbit ([1]; strain PA453, rabbit serum): 0.5 µg/mL | Serum MIC Rat ([1]; strain PA453, rat serum): 32 µg/mL | activity against P. aeruginosa isolates in human serum or SURVANTA ([2]; Tables 11 and 12): active against a variety of P. aeruginosa isolates | MIC, CAA + […] Human Serum ([2]; strain CFS 1109 (ATCC 17646)): 1 µg/mL | MIC, CAA + […] Human Serum ([2]; strain CFS 1292): 2 µg/mL | MIC, CAA + […] Human Serum ([2]; strain CFS1539 (PA1)): 1 µg/mL | MIC, CAA + […] Human Serum ([2]; strain CFS 1540 (PA2)): 1 µg/mL | MIC, CAA + […] Human Serum ([2]; strain CFS 1541 (PA3)): 1 µg/mL | MIC, CAA + […] Human Serum ([2]; strain CFS 1557 (PA19)): 4 µg/mL | MIC, CAA + […] Human Serum ([2]; strain CFS 1558 (PA20)): 0.5 µg/mL | MIC, CAA + […] Human Serum ([2]; strain CFS 1559 (PA21)): 2 µg/mL | MIC, CAA + […] Human Serum ([2]; strain CFS 1560 (PA22)): 2 µg/mL | MIC, CAA + […] Human Serum ([2]; strain CFS 1561 (PA23)): 2 µg/mL | MIC, CAA + […] Human Serum ([2]; strain CFS 1562 (PA24)): 2 µg/mL | MIC, CAA + […] Human Serum ([2]; strain CFS 1596 (PA26)): 1 µg/mL | MIC, CAA + […] Human Serum ([2]; strain CFS 1597 (PA27)): 0.5 µg/mL | MIC, CAA + […] Human Serum ([2]; strain CFS 1669 (PA41)): 2 µg/mL | MIC, CAA + […] Human Serum ([2]; strain CFS 1674 (PA46)): 2 µg/mL | MIC, CAA + […] Human Serum ([2]; strain CFS 1675 (PA47)): 1 µg/mL | MIC, CAA + […] Human Serum ([2]; strain CFS 1766 (ATCC 27853)): 4 µg/mL | synergy with meropenem ([3]; FICI less than or equal to 0.5 = potent synergy): exhibited synergy with meropenem | FICI value (Run #1), with meropenem ([3]; strain CFS 1292): 0.1875 | FICI value (Run #2), with meropenem ([3]; strain CFS 1292): 0.219 | FICI value (Run #1), with meropenem ([3]; strain CFS 1557 (PA19)): 0.1875 | FICI value (Run #2), with meropenem ([3]; strain CFS 1557 (PA19)): 0.240 | FICI value (Run #1), with meropenem ([3]; strain CFS 1558 (PA20)): 0.09375 | FICI value (Run #2), with meropenem ([3]; strain CFS 1558 (PA20)): 0.109 | FICI value (Run #2), with meropenem ([3]; strain CFS 1559 (PA21)): 0.438 | FICI value (Run #2), with meropenem ([3]; strain CFS 1560 (PA22)): 0.198 | FICI value (Run #2), with meropenem ([3]; strain CFS 1561 (PA23)): 0.240 | FICI value (Run #2), with meropenem ([3]; strain CFS 1562 (PA24)): 0.240 | FICI value (Run #2), with meropenem ([3]; strain CFS 1766 (ATCC 27853)): 0.156 | MBEC in CAA supplemented with […] human serum [4]: 1 µg/mL | Bacterial burden, Kidneys ([5]; GN370 3 mg/kg): 5.06 ± 1.05 log10 CFU/g | Bacterial burden, Lung 1 ([5]; GN370 3 mg/kg): 6.28 ± 1.12 log10 CFU/g | Bacterial burden, Lung 2 ([5]; GN370 3 mg/kg): 6.43 ± 1.01 log10 CFU/g | Bacterial burden, Spleen ([5]; GN370 3 mg/kg): 5.23 ± 1.25 log10 CFU/g | Bacterial burden, Kidneys ([5]; GN370 10 mg/kg): 3.46 ± 0.78 log10 CFU/g | Bacterial burden, Lung 1 ([5]; GN370 10 mg/kg): 6.63 ± 1.00 log10 CFU/g | Bacterial burden, Lung 2 ([5]; GN370 10 mg/kg): 5.53 ± 1.75 log10 CFU/g | Bacterial burden, Spleen ([5]; GN370 10 mg/kg): 3.76 ± 0.44 log10 CFU/g | reduction in CFUs in the lungs ([5]; GN370 alone, increasing concentrations, compared to pretreatment control): 4 log10 | additional decrease of bacterial density in lung, kidney and spleen ([5]; GN-370 (10 mg/kg) in addition to meropenem, compared to meropenem or GN-370 alone): 2 log10 CFU/g | decrease of mean bacterial density in lungs ([5]; agent alone, compared to the starting CFU and the vehicle control group): about 2 log10 CFU/g | Log10 CFU/g of vegetation ([5]; GN370 3 mg/kg): 6.52 ± 1.01 Log10 CFU/g | Log10 CFU/g of vegetation ([5]; GN370 10 mg/kg): 6.25 ± 1.35 Log10 CFU/g | Log10 CFU/g of vegetation ([5]; GN370 30 mg/kg): 7.88 ± 0.50 Log10 CFU/g | tolerability in infected rabbits ([5]; tested doses): well tolerated at the tested doses | survival until the end of the study ([5]; treated infected rabbits): all treated infected animals survived until the end of the study | resensitization to carbapenems in synergistic combinations ([6]; imipenem (IPM) and meropenem (MEM), carbapenem-resistant isolates): reductions of IPM and MEM MICS to below breakpoint values | FICI ([6]; lysin + imipenem): 0.094 | FICI ([6]; lysin + meropenem): 0.125 | Antibiotic MIC / Lysin MIC, Alone ([6]; vs. WC-452 (Table 22)): 2
